These results are taken from paper PMC2807882, “Conservation of DNA-binding specificity and oligomerisation properties within the p53 family”.

What all share (test): fluorescence anisotropy competition titration; 25 mM sodium phosphate (purification buffer pH 7.2), 225 mM NaCl, 10% v/v glycerol, 5 mM DTT, 0.2 mg/mL BSA, 22 C
What all share (conditions): protein: recombinant; tags: N-terminal 6xHis-lipoyl-TEV tag, cleaved; chain copies: 4

The target of data set [1] is T1, ΔNp63γ (Homo sapiens, UniProt Q9H3D4-6 1-393).
T1 sequence: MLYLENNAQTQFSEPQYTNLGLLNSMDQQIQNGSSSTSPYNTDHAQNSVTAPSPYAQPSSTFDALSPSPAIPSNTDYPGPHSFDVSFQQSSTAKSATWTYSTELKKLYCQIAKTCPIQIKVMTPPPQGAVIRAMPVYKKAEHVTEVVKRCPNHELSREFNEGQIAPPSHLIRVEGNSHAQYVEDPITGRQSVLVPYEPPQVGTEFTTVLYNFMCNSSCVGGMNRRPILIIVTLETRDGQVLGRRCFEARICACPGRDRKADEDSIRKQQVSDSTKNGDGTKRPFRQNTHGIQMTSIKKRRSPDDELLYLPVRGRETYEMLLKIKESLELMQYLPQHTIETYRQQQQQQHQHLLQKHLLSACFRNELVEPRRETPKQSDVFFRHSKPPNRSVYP

In data set [2] the target is Mmp53 (Mus musculus, UniProt P02340 1-390).
The target in data set [3] is T2, ΔNp63α (Homo sapiens, UniProt Q9H3D4-2 1-586).
T2 sequence: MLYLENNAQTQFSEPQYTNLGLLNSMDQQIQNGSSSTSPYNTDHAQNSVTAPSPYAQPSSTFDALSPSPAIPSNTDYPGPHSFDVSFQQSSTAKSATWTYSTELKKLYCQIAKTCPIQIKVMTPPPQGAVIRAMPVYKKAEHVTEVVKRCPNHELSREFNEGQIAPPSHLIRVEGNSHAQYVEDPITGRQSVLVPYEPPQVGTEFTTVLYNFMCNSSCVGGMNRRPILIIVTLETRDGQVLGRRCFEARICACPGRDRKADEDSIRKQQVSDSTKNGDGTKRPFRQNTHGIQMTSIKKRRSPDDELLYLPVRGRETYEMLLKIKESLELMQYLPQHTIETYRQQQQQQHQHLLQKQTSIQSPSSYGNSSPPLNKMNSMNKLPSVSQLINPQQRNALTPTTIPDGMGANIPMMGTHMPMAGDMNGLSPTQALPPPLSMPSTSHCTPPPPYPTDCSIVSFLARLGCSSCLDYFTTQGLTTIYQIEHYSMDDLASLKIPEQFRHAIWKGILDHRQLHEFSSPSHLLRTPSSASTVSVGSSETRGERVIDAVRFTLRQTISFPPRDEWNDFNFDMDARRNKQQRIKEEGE

Data set [4] has as its target T3, Dmp53 (Drosophila melanogaster, UniProt Q9N6D8 1-385).
T3 sequence: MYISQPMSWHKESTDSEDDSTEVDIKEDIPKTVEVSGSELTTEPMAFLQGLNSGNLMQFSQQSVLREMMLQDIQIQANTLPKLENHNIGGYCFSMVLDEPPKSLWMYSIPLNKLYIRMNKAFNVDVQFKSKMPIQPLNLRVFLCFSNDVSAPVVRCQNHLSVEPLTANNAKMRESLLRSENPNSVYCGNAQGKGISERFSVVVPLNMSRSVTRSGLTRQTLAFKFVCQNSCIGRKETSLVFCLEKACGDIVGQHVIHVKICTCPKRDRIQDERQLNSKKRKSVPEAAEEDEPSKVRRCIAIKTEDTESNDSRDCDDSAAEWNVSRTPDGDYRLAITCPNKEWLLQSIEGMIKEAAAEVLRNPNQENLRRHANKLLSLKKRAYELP

The target of data set [5] is T4, ΔNp73β (Homo sapiens, UniProt O15350-9 1-450).
T4 sequence: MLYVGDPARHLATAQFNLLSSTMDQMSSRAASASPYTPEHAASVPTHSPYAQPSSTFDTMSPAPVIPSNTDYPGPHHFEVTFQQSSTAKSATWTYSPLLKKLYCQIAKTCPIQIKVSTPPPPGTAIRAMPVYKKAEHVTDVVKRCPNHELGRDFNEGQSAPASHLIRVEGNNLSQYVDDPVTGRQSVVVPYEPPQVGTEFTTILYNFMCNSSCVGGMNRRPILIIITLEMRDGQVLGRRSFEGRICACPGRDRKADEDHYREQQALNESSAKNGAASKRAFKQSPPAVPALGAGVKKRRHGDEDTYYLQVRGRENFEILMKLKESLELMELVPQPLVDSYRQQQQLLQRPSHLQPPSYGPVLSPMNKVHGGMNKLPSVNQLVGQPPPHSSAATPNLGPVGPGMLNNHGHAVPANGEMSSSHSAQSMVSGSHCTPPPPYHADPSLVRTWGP

The target of data set [6] is Xlp53 (Xenopus laevis, UniProt Q7T1D0 1-362).
Xlp53, sequence (Q7T1D0 entry or part of it): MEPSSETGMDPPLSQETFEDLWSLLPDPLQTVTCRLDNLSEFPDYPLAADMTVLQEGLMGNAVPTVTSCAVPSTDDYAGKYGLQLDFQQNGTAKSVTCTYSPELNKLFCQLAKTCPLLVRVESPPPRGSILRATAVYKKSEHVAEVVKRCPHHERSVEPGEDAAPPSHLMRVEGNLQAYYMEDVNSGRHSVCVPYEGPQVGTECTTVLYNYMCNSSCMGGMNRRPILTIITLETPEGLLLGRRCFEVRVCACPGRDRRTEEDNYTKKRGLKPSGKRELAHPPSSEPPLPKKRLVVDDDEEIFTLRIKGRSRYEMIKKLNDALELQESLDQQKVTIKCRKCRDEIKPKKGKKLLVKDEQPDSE

Mmp53, sequence (P02340 whole entry): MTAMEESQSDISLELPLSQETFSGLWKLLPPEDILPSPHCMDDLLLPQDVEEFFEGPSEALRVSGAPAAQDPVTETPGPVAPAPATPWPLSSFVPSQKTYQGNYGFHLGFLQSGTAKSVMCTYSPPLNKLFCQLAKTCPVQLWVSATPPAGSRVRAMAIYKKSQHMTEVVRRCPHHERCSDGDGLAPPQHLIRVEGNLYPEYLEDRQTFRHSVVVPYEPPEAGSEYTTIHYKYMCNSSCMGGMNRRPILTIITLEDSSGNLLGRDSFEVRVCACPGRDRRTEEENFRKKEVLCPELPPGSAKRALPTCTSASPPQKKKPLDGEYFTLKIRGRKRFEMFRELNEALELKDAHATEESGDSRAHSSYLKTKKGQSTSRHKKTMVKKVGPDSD

B1: Ref competitor (dsDNA)
DNA 1: CGCGGACATGTCCGGACATGTCCCGC
DNA 2: GCGGGACATGTCCGGACATGTCCGCG
Turning to B1, the dissociation constant Kd in data set [1] was found to be 33.1 nM; in data set [2] it was 132 nM; in data set [3], 61.7 nM; in data set [4], 27.5 nM; in data set [5] it was 24 nM; in data set [6], 83.2 nM.
